Measurements taken from US20240261333A1 (published 2024).

Key:
Experiment in all cases: co-IP, anti-FLAG, lysate of cells with C-FLAG B3GNT2; mass spectrometry
PRRC2A = biological target: T1, PRRC2A (human, UniProt P48634 1-2157)
T1 construct: also called NP_004629.3 (+1)

FUBP3 = biological target: T2, FUBP3 (human, UniProt Q96I24 2-572)
T2 construct: also called NP_003925.1 (+2)
T2 sequence (looked up): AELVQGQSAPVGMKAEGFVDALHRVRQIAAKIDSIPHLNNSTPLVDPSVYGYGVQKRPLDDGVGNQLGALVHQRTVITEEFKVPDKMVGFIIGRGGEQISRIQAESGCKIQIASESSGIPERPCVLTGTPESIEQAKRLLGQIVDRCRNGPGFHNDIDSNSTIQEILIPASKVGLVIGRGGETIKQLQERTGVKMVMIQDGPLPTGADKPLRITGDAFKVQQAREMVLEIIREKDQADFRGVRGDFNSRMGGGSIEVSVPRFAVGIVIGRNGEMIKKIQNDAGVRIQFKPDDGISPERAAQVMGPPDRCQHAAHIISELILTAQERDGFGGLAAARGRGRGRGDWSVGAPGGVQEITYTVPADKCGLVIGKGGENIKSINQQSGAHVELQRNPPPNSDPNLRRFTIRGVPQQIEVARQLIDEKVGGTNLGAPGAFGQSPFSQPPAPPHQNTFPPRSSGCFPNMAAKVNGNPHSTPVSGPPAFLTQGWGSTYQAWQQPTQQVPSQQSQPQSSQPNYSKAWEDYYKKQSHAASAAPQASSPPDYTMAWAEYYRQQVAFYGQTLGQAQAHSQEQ

C1orf68 = biological target: T3, C1orf68 (human, UniProt Q5T750 1-250)
T3 construct: also called NP_001019850.1

ATXN2 = biological target: T4, ATXN2 (human, UniProt Q99700 1-1313)
T4 construct: also called NP_002964.3

RBM39 = biological target: T5, RBM39 (human, UniProt Q14498-3 2-508, limits assumed)
T5 construct: also called NP_001310351.1 (+3)
T5 sequence (looked up): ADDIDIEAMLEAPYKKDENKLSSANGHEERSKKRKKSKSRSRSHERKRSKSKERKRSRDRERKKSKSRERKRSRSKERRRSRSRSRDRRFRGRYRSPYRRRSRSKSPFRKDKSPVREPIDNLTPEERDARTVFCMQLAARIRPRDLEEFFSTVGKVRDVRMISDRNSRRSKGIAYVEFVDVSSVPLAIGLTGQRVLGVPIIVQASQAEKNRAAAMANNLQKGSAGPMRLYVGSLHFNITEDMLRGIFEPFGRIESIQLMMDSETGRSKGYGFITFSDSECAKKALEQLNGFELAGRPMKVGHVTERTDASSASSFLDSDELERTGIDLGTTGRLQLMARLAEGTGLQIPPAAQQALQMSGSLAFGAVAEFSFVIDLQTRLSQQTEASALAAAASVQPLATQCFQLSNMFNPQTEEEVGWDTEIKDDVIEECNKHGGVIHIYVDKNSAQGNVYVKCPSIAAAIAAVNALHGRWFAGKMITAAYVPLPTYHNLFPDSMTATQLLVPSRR

RPS3 = RPS3 (human, UniProt P23396 2-243)
KRT6B = biological target: T6, KRT6B (human, UniProt P04259 2-564)
T6 construct: also called NP_00546.2
T6 sequence (looked up): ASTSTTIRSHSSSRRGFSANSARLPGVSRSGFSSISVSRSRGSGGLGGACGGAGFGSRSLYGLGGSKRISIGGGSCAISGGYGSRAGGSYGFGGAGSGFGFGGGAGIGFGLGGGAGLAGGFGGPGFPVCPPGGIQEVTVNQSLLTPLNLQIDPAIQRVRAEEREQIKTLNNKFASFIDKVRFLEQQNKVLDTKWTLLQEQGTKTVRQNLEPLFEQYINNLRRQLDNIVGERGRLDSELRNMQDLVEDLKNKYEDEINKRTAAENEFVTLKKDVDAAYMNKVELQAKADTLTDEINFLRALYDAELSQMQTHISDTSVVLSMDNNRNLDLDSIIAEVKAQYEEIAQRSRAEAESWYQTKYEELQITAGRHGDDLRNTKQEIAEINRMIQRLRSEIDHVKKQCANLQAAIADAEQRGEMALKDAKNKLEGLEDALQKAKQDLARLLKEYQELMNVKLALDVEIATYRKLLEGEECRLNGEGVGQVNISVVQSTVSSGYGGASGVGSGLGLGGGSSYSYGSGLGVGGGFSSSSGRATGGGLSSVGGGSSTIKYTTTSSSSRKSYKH

T1 sequence (P48634 whole entry): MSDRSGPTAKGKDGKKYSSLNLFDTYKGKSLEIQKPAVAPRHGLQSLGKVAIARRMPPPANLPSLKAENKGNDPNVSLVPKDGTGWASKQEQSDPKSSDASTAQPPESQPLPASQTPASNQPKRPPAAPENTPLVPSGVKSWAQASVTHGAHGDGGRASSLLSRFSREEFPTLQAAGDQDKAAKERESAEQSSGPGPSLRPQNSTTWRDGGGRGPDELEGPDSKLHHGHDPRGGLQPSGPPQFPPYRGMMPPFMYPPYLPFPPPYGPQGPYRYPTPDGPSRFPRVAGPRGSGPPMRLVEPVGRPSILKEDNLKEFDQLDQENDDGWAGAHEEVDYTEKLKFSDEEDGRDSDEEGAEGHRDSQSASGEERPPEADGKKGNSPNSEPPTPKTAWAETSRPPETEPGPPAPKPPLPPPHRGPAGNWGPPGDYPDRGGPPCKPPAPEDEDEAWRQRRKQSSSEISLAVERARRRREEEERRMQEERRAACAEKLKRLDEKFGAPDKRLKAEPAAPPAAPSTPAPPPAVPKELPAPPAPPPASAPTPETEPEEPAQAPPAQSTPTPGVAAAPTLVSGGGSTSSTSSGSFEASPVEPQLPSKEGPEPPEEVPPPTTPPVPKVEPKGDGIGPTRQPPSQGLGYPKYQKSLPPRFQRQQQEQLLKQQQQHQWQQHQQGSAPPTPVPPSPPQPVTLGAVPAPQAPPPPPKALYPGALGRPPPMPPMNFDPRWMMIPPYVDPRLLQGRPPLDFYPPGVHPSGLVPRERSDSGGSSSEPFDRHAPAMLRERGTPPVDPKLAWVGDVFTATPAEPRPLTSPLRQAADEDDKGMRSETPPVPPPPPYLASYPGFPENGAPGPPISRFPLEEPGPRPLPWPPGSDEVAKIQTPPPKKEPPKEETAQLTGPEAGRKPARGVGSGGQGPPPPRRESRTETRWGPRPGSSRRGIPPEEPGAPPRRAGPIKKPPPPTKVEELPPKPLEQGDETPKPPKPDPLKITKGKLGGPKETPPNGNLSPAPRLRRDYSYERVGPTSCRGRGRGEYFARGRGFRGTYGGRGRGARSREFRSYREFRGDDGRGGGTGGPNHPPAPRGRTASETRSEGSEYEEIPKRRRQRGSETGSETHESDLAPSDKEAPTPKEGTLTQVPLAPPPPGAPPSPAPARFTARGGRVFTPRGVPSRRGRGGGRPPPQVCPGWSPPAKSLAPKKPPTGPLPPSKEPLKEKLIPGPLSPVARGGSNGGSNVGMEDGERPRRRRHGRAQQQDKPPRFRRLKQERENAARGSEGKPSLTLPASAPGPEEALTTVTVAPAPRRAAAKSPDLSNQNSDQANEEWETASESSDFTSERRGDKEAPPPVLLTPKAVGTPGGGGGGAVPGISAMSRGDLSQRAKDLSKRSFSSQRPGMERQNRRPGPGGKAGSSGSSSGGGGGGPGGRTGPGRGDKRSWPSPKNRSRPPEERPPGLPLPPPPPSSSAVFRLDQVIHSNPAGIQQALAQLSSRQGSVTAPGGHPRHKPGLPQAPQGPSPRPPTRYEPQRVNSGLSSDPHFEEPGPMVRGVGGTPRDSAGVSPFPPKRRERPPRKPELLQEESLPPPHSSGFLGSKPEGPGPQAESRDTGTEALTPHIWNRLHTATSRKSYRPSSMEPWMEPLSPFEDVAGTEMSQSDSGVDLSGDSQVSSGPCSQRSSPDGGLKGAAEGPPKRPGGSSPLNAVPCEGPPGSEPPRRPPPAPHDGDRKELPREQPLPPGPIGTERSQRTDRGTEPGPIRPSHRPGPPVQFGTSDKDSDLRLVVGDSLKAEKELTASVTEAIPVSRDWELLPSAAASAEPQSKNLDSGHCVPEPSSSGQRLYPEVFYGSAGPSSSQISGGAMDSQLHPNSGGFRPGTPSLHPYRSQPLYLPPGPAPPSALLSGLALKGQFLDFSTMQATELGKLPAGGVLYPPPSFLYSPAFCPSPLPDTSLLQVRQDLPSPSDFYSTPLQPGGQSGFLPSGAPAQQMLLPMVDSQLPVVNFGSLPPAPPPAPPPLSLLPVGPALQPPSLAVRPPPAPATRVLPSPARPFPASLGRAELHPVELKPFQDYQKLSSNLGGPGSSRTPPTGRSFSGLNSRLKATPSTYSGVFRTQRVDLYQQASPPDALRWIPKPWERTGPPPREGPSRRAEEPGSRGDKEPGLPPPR
T3 sequence (Q5T750 whole entry): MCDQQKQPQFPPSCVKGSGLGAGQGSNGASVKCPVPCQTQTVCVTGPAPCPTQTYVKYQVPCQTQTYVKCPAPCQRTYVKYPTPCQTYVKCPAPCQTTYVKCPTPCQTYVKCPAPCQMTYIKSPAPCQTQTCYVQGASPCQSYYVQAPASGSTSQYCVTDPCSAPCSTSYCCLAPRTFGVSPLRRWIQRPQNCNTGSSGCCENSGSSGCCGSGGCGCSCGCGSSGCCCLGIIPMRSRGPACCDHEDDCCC
T4 sequence (Q99700 whole entry): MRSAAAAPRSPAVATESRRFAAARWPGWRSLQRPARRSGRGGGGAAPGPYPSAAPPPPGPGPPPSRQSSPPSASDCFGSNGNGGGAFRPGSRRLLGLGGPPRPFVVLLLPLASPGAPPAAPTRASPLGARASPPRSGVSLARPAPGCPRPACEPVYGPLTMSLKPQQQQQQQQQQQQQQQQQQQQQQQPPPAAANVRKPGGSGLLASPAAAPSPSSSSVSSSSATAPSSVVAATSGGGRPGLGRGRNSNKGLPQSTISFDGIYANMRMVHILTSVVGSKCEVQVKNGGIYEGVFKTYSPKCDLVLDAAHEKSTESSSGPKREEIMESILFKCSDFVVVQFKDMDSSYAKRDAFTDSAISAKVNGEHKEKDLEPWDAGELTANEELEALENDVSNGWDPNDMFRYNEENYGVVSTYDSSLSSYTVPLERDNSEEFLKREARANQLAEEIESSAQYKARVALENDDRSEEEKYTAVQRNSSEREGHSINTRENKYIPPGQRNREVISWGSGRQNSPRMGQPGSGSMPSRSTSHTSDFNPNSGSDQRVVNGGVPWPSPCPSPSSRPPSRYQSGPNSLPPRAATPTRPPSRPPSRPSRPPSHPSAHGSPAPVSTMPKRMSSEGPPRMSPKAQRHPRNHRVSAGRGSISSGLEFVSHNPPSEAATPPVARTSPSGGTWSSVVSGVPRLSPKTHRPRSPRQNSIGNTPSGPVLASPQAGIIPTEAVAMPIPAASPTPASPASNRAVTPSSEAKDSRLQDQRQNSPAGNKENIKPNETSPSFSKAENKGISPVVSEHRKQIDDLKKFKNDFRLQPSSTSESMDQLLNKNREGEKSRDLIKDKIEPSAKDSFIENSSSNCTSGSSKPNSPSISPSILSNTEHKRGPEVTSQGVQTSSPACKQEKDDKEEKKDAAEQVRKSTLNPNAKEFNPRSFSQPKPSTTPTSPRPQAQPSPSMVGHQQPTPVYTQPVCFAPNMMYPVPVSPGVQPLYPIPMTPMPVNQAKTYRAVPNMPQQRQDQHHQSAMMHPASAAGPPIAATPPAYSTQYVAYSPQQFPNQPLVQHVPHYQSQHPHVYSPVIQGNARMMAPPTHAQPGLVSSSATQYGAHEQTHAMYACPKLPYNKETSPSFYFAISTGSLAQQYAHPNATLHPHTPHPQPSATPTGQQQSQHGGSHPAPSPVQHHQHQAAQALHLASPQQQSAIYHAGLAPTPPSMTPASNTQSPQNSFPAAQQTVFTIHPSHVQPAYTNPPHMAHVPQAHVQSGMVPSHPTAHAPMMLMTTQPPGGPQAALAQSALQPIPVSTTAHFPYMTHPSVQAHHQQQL

B1: C-terminal FLAG tagged B3GNT2 (enzyme, human, UniProt Q9NY97 1-397, looked up)
chain: MSVGRRRIKLLGILMMANVFIYFIMEVSKSSSQEKNGKGEVIIPKEKFWKISTPPEAYWNREQEKLNRQYNPILSMLTNQTGEAGRLSNISHLNYCEPDLRVTSVVTGFNNLPDRFKDFLLYLRCRNYSLLIDQPDKCAKKPFLLLAIKSLTPHFARRQAIRESWGQESNAGNQTVVRVFLLGQTPPEDNHPDLSDMLKFESEKHQDILMWNYRDTFFNLSLKEVLFLRWVSTSCPDTEFVFKGDDDVFVNTHHILNYLNSLSKTKAKDLFIGDVIHNAGPHRDKKLKYYIPEVVYSGLYPPYAGGGGFLYSGHLALRLYHITDQVHLYPIDDVYTGMCLQKLGLVPEKHKGFRTFDIEEKNKNNICSYVDLMLVHSRKPQEMIDIWSQLQSAHLKC
notes: Overexpressed in cells and pulled down from the lysate with mouse anti-FLAG antibody; also called C-FLAG B3GNT2; C-term flag; not shown: C-terminal FLAG tag
- co-IP mass spectrometry count (PRRC2A): 5
- co-IP mass spectrometry count (FUBP3): 9
- co-IP mass spectrometry count (C1orf68): 2
- co-IP mass spectrometry count (ATXN2): 3
- co-IP mass spectrometry count (RBM39): 5
- co-IP mass spectrometry count (RPS3): 23
- co-IP mass spectrometry count (KRT6B): 331
